Assay [1] addresses HisEhC2B121 (E. histolytica). The experiment in a line: ITC. (In general: Isothermal titration calorimetry measures the heat released or taken up as one component is titrated into another.)
The next assay concerns the target T1, MBPEhC2BHis (E. histolytica, UniProt C4M344 1-208).
T1 construct: also called EhC2B full-length; not shown: MBP, N-terminal, kept; His-tag, C-terminal, kept
T1 sequence: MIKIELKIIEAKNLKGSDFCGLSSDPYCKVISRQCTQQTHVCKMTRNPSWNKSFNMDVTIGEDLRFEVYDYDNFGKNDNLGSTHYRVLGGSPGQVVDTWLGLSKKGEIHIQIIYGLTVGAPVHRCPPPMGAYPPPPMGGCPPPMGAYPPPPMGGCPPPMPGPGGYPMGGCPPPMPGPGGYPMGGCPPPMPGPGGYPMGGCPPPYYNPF
The assay is described as follows: ITC. As to conditions: both partners purified.

B1: GSTEhRab21 (enzyme)
chain: MENEFKVVLLGEGKVGKTSMILRYTQNFFTPEEGPRTTQASYVSKTLNIDKNDYIINIWDTAGQEKYQALTPIYYRDSQGAILVYDITEPRSFQRVQTEVDNIRDMLGDSCCIVIVGNKMDLVQQRKISKEEADKYAESVKAIHYLCSCATGDGISDVFEGLTKQMVDKRKSLGDDELFDRKKSTLVFQDDKNNTRQAKSDCC
notes: also called GppNHp-GSTEhRab21; GDP-GSTEhRab21; source: recombinant, purified
For the molecule B1, in assay [1], the Ka turned out to be 9.6e+06 M⁻¹; the dH is -15.6 kcal/mol; the stoichiometry N (in general, the number of molecules, sites or subunits per partner or assembly) turned out to be 1. Moreover, in the assay with MBPEhC2BHis, the Ka stood at 1.24e+07 M⁻¹, the dH was -9.23 kcal/mol and the “stoichiometry N” value is 1.

The values are drawn from PMC7197785 (PLoS Pathogens, 2020).
